Results taken from the nanobody polyreactivity screen of Harvey et al. (2022).

Test: yeast display, Sf9 membrane polyspecificity reagent, FACS + sequencing; frameworks hold sequencing errors
Outline: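 After 36–48 hours of galactose induction, yeast (Saccharomyces cerevisiae BJ5465) displaying a synthetic nanobody library were stained at 4 °C for 1 hour with 10% biotinylated, detergent-solubilized Sf9 membrane reagent. Streptavidin microbeads enriched the stained cells before FACS sorting into low and high (top ~1%) gates on anti-HA and streptavidin fluorescence. Each clone's polyreactivity label reflects its gate of origin.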

Sequence | polyreactivity (PSR sort gate)
QVQLVESGGGLVQAGGSLRLSCAASGSTLGYYTMGWYRQAPGKERELVAAISGSGVTTSYADSVKGRFTISRDNAKNTVYLQMNSLKPEDTAVYYCARRYRVGTTGGDYWGQGTQVTVSS | high polyreactivity
QVQLVESGGGLVQAGGSLRLSCAASGSTLGYYVMGWYRQAPGKERELVAAITGGGSTDYADSVKGRFTISRDNEKNTVYLQMNSLKPEDTAVYYCAAERTRTGQLFWWGPIYDYWGQGTQVTVSS | low polyreactivity
QVQLVESGGGLVQAGGSLRLSCAASGSTLHSYAMGWYRQAPGKERELVAAISFRGGSTYADSVKGRFTISRDNAKNTVYLQMNSLKPEDTAVYYCAAYSVYTMYWGQGTQVTVSS | low polyreactivity
QVQLVESGGGLVQAGGSLRLSCAASGSTLLYYAMGWYRQAPGKERELVAAISSTGSTNYADSVKGRFTISRDNAKNTVYLQMKSLKPEDTAVYYCAADYSVPTSQAYDYWGQGTQVTVSS | low polyreactivity
QVQLVESGGGLVQAGGSLRLSCAASGSTLNRNVMGWYRQAPGKERELVAVITYGVGSTYYADSVKGRFTISRDNAKNTVYLQMNSLKPEDTAVYYCNKDPLVFDYWGQGTQVTVSS | low polyreactivity
QVQLVESGGGLVQAGGSLRLSCAASGSTLNRYAMGWYRQAPGKERELVAAINGSGGSTYYADSVKGRFTISRENAKNTVYLLINSLKQEDSAVYYCAAYGYSFAYGAYGYWGQGTQVTVSS | high polyreactivity
QVQLVESGGGLVQAGGSLRLSCAASGSTLPANAMGWYRQAPGKERELVAAITITTDGSTYYADSVKGRFTISRDNAKNTVYLQLNSLKPEDTAVYYCAVARYRYHIRKMGYWGQGTQVTVSS | low polyreactivity
QVQLVESGGGLVQAGGSLRLSCAASGSTLPFNAMGCYRQAPGKERELVAAISSGSSTNYADSVKGRFTISRDNAKNTVYLKMNSLKPEDTAVYYCNARPRANQLGDYYKPGTYDYWGQGTQVTVSS | low polyreactivity
QVQLVESGGGLVQAGGSLRLSCAASGSTLPVYAMGWYRQAPGKERELVATITDTGITNYADSVKGRFTLSRDNAKNTVYLQMNSLKPEDTAVYYCAVDSTGVWPYQVGYAPYDYWGQGTQVTVSS | low polyreactivity
QVQLVESGGGLVQAGGSLRLSCAASGSTLQDNAMGWYRQAPGKDRELVAAITTGSTTYADSVKGRFTISRDNAKNTVYIQMNSLKPEDTAVYYCAADSEEYDGYTWWVFKFDYWGQGTQVTVSS | low polyreactivity
QVQLVESGGGLVQAGGSLRLSCAASGSTLQDNAMGWYRQAPGKERELVAAITTGSTTYADSVKGRFTISRDNAKNTVYLQMNSLKPEDTAVYYCNARVDWGWPGYEYDYWGQGTQVTVSS | low polyreactivity
QVQLVESGGGLVQAGGSLRLSCAASGSTLQGYAMGWYRQAPGKERELVAAISRSGGSTYYADSVKGRFTISRDNAKNTVYLQMNSLKPEDTAVYYCNRVAGGRRKGPWSYQYDYWGQGPQVTVSS | high polyreactivity
QVQLVESGGGLVQAGGSLRLSCAASGSTLRAYAMGWYRQAPGKERELVAGITSGGRTNYADSVKGRFTISRDNAKNTVYLQMNSLKPEDTAVYYCATDRFSHYYFLYDYWGQGTQVTVSS | low polyreactivity
QVQLVESGGGLVQAGGSLRLSCAASGSTLRAYAMGWYRQAPGKERELVATITRGARTNYADSVKGRFTISRDNAKNTVYLQMNSLKPEDTAVYYCAARSYGSQLSRQVYYWGQGTQVTVSS | high polyreactivity
QVQLVESGGGLVQAGGSLRLSCAASGSTLRFYAMGWYRPAPGKERELVAAISSSGSSTYYADSVKGRFTISRDNAKNTVYLQLNSLKPEDTAVYYCSGYGYWGQGTQVTVSS | high polyreactivity
QVQLVESGGGLVQAGGSLRLSCAASGSTLRFYAMGWYRQAAGKERELVADITYRGGSTYYADSVKGRFTISRDNAKNTVYLQMNSLKPEDTAVDYCAKQRSYSSKFDYWGQGSQVTVSS | high polyreactivity
QVQLVESGGGLVQAGGSLRLSCAASGSTLRRYAMGWYRQAPGKERELVAAISGTGSRTYYADSVNGRFTISRDNAKNTDYLQMNSLKPEDTAVYYCNASQYRLTENDYWGQGTQVNVSS | high polyreactivity
QVQLVESGGGLVQAGGSLRLSCAASGSTLRTNAMGWYRQAPGKERELVAAISSSAGSTYYADSVKGRFTISRDNAKNTVYLQMNSLKQEDTAVYYCAKQPGSAYGYWGQGTQVTVSS | high polyreactivity
QVQLVESGGGLVQAGGSLRLSCAASGSTLRVNAKGWYRQAPGKERELVAAISYRGGSTYYADSVKGRFTISRDNAKNTVYLQMNSLKPEDTAVYYCAAKQGATRGYYYWGQGTQVTVSS | high polyreactivity
QVQLVESGGGLVQAGGSLRLSCAASGSTLRWYAMGWYRQAPGKERELVARISWTTGSTYYADSVKGRFTISRDNAKNTVYLQMNSLKPEDTAVYYCAKGKKSSRSGIYNYWGQGTQVTVSS | high polyreactivity
QVQLVESGGGLVQAGGSLRLSCAASGSTLRWYTMGWYRQAPGKESELVATNSRGGTTNYADSVKGRFTISRDNAKNTVYLQMNSLKPEDTAVYYCASRDFWWSRRIFGYWGQGTHVTVSS | high polyreactivity
QVQLVESGGGLVQAGGSLRLSCAASGSTLRYYAMGWYRQAPGKERELVARIRSNGGSTYYADSVKGRFTISRDNAKNTVYLQMNSLKPEDSAVYYCAARTYRGQYYTGFGFGYWGQGTQVTVSS | high polyreactivity

Sequence | polyreactivity (PSR sort gate)
QVQLVESGGGLVQAGGSLRLSCAASGSTLSAYVMGWYRQAPGKERELVAAISQSADSTYYADSVKGRFTILRDNAKNTVYLQMNSLKPEDTAVYYCAAEYPYIYRFDYWGQGTQVTVSS | low polyreactivity
QVQLVESGGGLVQAGGSLRLSCAASGSTLSDNAMGWYRQAPGKERELVARISGDGSTNYADSVKGRFTISRDNAKNTVYLQMNSLKPDDTAVYYCNAGTAGIYYYGKSDYWGQGTQVTVSS | low polyreactivity
QVQLVESGGGLVQAGGSLRLSCAASGSTLSENVMGWYRQAPGKERELVATISYSGDSTYYADSVKGRFTISRDNAKNTVYLQMNSLIPEDTAVYYCNADHFVTVGQFDWYDSWGQGTQVTVSS | low polyreactivity
QVQLVESGGGLVQAGGSLRLSCAASGSTLSKYGMGRYRQAPGKERELVAAISYSSGSTYYADSVKGRFTISRDNAKNSVYLQMNSLKPEDTAVYYGAADRFRRLHYWTYDYWGQGTQVTVSS | high polyreactivity
QVQLVESGGGLVQAGGSLRLSCAASGSTLSRYAMGWYRQAPGKERELVAAISRRGGSTFYADSVKGRFTISRDNAKNTVYLQRNSLKPEDTAVYYCAALSNHGYYIRMDYWGQGTQVTVSS | high polyreactivity
QVQLVESGGGLVQAGGSLRLSCAASGSTLSRYAMGWYRQAPGKERELVAAISWSGGRTYYADSVKGRFTISRDYAKNTVYLQMNSLKPEDTAVYYCAARYGYRTPDGDYWGQGTQVTVSS | high polyreactivity
QVQLVESGGGLVQAGGSLRLSCAASGSTLTFNAMGWYIQAPGKERELVAAISWSDTDTYYADSVKGRFTISRDNAKNTVYLQMNSLKPEDTAVYYCAATLSAYEMDYWGQATQVTVSS | low polyreactivity
QVQLVESGGGLVQAGGSLRLSCAASGSTLTFNAMGWYRQAPWKERELVAAISWSDTDTYYADSVKGRFTISRDNAKNTVYLQMNSLKPEDTAVYYCAATLSAYEMDYWGQATQVTVSS | low polyreactivity
QVQLVESGGGLVQAGGSLRLSCAASGSTLTRNDMGWYRQAPGKERELVAAITFSGSDTYYADSVKGRFTISRDNANNTVYLQMNSLKPEDTAVYYCAAEYGGYEYDQWGQGTQVTVSS | low polyreactivity
QVQLVESGGGLVQAGGSLRLSCAASGSTLTVNVMGWYRHAPGKEREFVAAINDSGSTYYADSVKGRFTISRDNAKNTVYLQMNSLKPEDTAVYYCATYYWVGLSLYDYWGQGTQVTVSS | low polyreactivity
QVQLVESGGGLVQAGGSLRLSCAASGSTLVAYAMGWYRQAPGKERELVAAISRSGGNTYYADSVKGRFTISRDNAKNTVYFQMISLKPEDTAVYYCAAVRLYRYDYWGQCTQVTVSS | low polyreactivity
QVQLVESGGGLVQAGGSLRLSCAASGSTLVDYAMGWYRQAPGKERQLVAAITSGGSTNYADSVMGRFTISRDNAKKTVYLQMNSLKPEDTAVYYCAAEWQRGLQAEYYYWGQGTKVTVSS | low polyreactivity
QVQLVESGGGLVQAGGSLRLSCAASGSTLVGNAMGWYRQAPGKEMELVAVISYRGGSTYYADSVKGRFTISRDNAKNTVYLQMNSLKPEDTAVYDCAARYYRNPVFVIMDYWGQGTQVTVSS | high polyreactivity
QVQLVESGGGLVQAGGSLRLSCAASGSTLVGNAMGWYRQAPGKERELVAAISSSGTSTYYADSVKGRFTISRDNAKNTVYLQMNSLKPEDTAVYYCAAYVYGVGMDYWGQGTQVTVSS | high polyreactivity
QVQLVESGGGLVQAGGSLRLSCAASGSTLVGNTMGCYRQSPGKERELVAAITGVGSTNYADSVKGRFTISRDNAKNTVYLQMNSLKPEDTAVYYCAAQYSYTYIVSYLYDMDYWGQGTQVTVSS | low polyreactivity
QVQLVESGGGLVQAGGSLRLSCAASGSTLVRYAMGWYRQAPGKERELVAAISGSGGSTFYADSVKGRFTISRDNAKNSVYLQMNSLKPEDTAVYYCAARYYWYGRAGNKHASYYYWGQGTQVTVSS | high polyreactivity
QVQLVESGGGLVQAGGSLRLSCAASGSTLVVNGMGWYRQAPGKERELVASISSDGSTNYADSVKGRFTISRDNAKNTVYLQMNSLKPEDTAVYYCASDEGTGQASLSSNLYDYWGQGTQVTVSS | low polyreactivity
QVQLVESGGGLVQAGGSLRLSCAASGSTLVVYAMGRYRQAPGIERELVAAISSIGGRPYYADSVKGRFTISRDNAKYTVYLQMNSLKPEDTAVYYCTALRYVVYFDDDYWGQGTQVTVSS | high polyreactivity
QVQLVESGGGLVQAGGSLRLSCAASGSTLYANAMGWYRQAPGKEMALVAAITRTGGNTYYADSVKGRFTISRDNAKNTVYFQMNSLKPEDTAVYYCAARNPPTDHTGYQSSVLPGRYYWGQGTQVTVSS | low polyreactivity
QVQLVESGGGLVQAGGSLRLSCAASGSTLYGYAMGWYRQAPGKERELVAAISVSGGRTYYADSVKGRFTISRDNAKNTVYLQMNSLKPEDTAVYYCAAYGTTRMDYWGQGTQVTVSS | high polyreactivity
QVQLVESGGGLVQAGGSLRLSCAASGSTLYKYAMGWYRQAPGKEREFVAAISWSGSSTYYADSVKGRFTISRDNAKNTVYLQMNSLKPEDTAVYYCAALYTHYYWIEYDYWGQGTQVTVSS | low polyreactivity
